Patent US20240010721A1 (HARBOUR BIOMED SHANGHAI, published 2024)
Residue numbers refer to the chain shown, from its start. Numbers in names are those of the source.

B1: PR002562 (antibody, human IgG1, kappa, V domains shown)
VH: QVQLVQSGGGVVQPGRSLRLSCAASGFTFSSYGMHWVRQAPGKGLEWVAIMWYDGSDKDYADSVKGRFTISRDTSKNTLYLQMNSLRAEDTAVYYCAREQARSFDLWGRGTLVTVSS
VL: DIVMTQSPSSLSASVGDRVTITCRASQTINNWLAWYQQKPGKAPKLLIYKASSLESGVPSRFSGSGSGTEFTLTISSLQPDDFATYYCQQYQSYSPMYTFGQGTKVEIKR
notes: PR001354 variant: VL N92Q; hIgG1; also called anti-ROR1 1015M2-C9(L: N92Q) hIgG1
B2: PR002587 (antibody, human IgG1, kappa, V domains shown)
VH: B1 VH with Q6E, S31N, M34I, G55A, D57N, K58T, Y80F
VL: B1 VL with S10T, Q92N, S93A
notes: PR001369 variant: VH G55A, VL S93A; hIgG1; also called anti-ROR1 1015M3-H10(H: G55A; L: S93A) hIgG1
B3: PR002582 (antibody, human IgG1, kappa, V domains shown)
VH: B1 VH with Q6E, S31N, M34I, D54E, D57N, K58T, Y80F
VL: B1 VL with S10T, Q92N
notes: PR001369 variant: VH D54E; hIgG1; also called anti-ROR1 1015M3-H10(H: D54E) hIgG1
B4: PR002579 (antibody, human IgG1, kappa, V domains shown)
VH: B1 VH with Q1E, V5L, Q6E, Y32F, I50V, M51I, G55A
VL: B1 VL with S10T, Q92N, S93A
notes: PR001364 variant: VH G55A, VL S93A; hIgG1; also called anti-ROR1 1015M3-D8(H: G55A; L: S93A) hIgG1
B5: PR002586 (antibody, human IgG1, kappa, V domains shown)
VH: B1 VH with Q6E, S31N, M34I, G55A, D57N, K58T, Y80F
VL: B1 VL with S10T
notes: PR001369 variant: VH G55A, VL N92Q; hIgG1; also called anti-ROR1 1015M3-H10(H: G55A; L: N92Q) hIgG1
B6: PR002571 (antibody, human IgG1, kappa, V domains shown)
VH: B1 VH with Q6E, I50V, M51A, G55A, S56V, D57S, K58E, T74N, S75A
VL: B1 VL with S10T, T28S, Q92K
notes: PR001356 variant: VH G55A; hIgG1; also called anti-ROR1 1015M2-E6(H: G55A) hIgG1
B7: PR002585 (antibody, human IgG1, kappa, V domains shown)
VH: B1 VH with Q6E, S31N, M34I, G55A, D57N, K58T, Y80F
VL: B1 VL with S10T, Q92N
notes: PR001369 variant: VH G55A; hIgG1; also called anti-ROR1 1015M3-H10(H: G55A) hIgG1
B8: PR002572 (antibody, human IgG1, kappa, V domains shown)
VH: B1 VH with Q1E, V5L, Q6E, Y32F, I50V, M51I
VL: B1 VL with S10T
notes: PR001364 variant: VL N92Q; hIgG1; also called anti-ROR1 1015M3-D8(L: N92Q) hIgG1
B9: PR002581 (antibody, human IgG1, kappa, V domains shown)
VH: B1 VH with Q6E, S31N, M34I, D57N, K58T, Y80F
VL: B1 VL with S10T, Q92N, S93A
notes: PR001369 variant: VL S93A; hIgG1; also called anti-ROR1 1015M3-H10(L: S93A) hIgG1
B10: PR002573 (antibody, human IgG1, kappa, V domains shown)
VH: B1 VH with Q1E, V5L, Q6E, Y32F, I50V, M51I
VL: B1 VL with S10T, Q92N, S93A
notes: PR001364 variant: VL S93A; hIgG1; also called anti-ROR1 1015M3-D8(L: S93A) hIgG1
B11: PR002569 (antibody, human IgG1, kappa, V domains shown)
VH: B1 VH with G55A
VL: B1 VL with Q92N, S93A
notes: PR001354 variant: VH G55A, VL S93A; hIgG1; also called anti-ROR1 1015M2-C9(H: G55A; L: S93A) hIgG1
B12: PR002565 (antibody, human IgG1, kappa, V domains shown)
VH: B1 VH with D54E
VL: B1 VL
notes: PR001354 variant: VH D54E, VL N92Q; hIgG1; also called anti-ROR1 1015M2-C9(H: D54E; L: N92Q) hIgG1
B13: PR002564 (antibody, human IgG1, kappa, V domains shown)
VH: B1 VH with D54E
VL: B1 VL with Q92N
notes: PR001354 variant: VH D54E; hIgG1; also called anti-ROR1 1015M2-C9(H: D54E) hIgG1
B14: PR002563 (antibody, human IgG1, kappa, V domains shown)
VH: B1 VH
VL: B1 VL with Q92N, S93A
notes: PR001354 variant: VL S93A; hIgG1; also called anti-ROR1 1015M2-C9(L: S93A) hIgG1
B15: PR002567 (antibody, human IgG1, kappa, V domains shown)
VH: B1 VH with G55A
VL: B1 VL with Q92N
notes: PR001354 variant: VH G55A; hIgG1; also called anti-ROR1 1015M2-C9(H: G55A) hIgG1
B16: PR002570 (antibody, human IgG1, kappa, V domains shown)
VH: B1 VH with Q6E, I50V, M51A, D54E, S56V, D57S, K58E, T74N, S75A
VL: B1 VL with S10T, T28S, Q92K
notes: PR001356 variant: VH D54E; hIgG1; also called anti-ROR1 1015M2-E6(H: D54E) hIgG1
B17: PR002583 (antibody, human IgG1, kappa, V domains shown)
VH: B1 VH with Q6E, S31N, M34I, D54E, D57N, K58T, Y80F
VL: B1 VL with S10T
notes: PR001369 variant: VH D54E, VL N92Q; hIgG1; also called anti-ROR1 1015M3-H10(H: D54E; L: N92Q) hIgG1
B18: PR002578 (antibody, human IgG1, kappa, V domains shown)
VH: B1 VH with Q1E, V5L, Q6E, Y32F, I50V, M51I, G55A
VL: B1 VL with S10T
notes: PR001364 variant: VH G55A, VL N92Q; hIgG1; also called anti-ROR1 1015M3-D8(H: G55A; L: N92Q) hIgG1
B19: PR002574 (antibody, human IgG1, kappa, V domains shown)
VH: B1 VH with Q1E, V5L, Q6E, Y32F, I50V, M51I, D54E
VL: B1 VL with S10T, Q92N
notes: PR001364 variant: VH D54E; hIgG1; also called anti-ROR1 1015M3-D8(H: D54E) hIgG1
B20: PR002568 (antibody, human IgG1, kappa, V domains shown)
VH: B1 VH with G55A
VL: B1 VL
notes: PR001354 variant: VH G55A, VL N92Q; hIgG1; also called anti-ROR1 1015M2-C9(H: G55A; L: N92Q) hIgG1
B21: PR002580 (antibody, human IgG1, kappa, V domains shown)
VH: B1 VH with Q6E, S31N, M34I, D57N, K58T, Y80F
VL: B1 VL with S10T
notes: PR001369 variant: VL N92Q; hIgG1; also called anti-ROR1 1015M3-H10(L: N92Q) hIgG1
B22: PR002577 (antibody, human IgG1, kappa, V domains shown)
VH: B1 VH with Q1E, V5L, Q6E, Y32F, I50V, M51I, G55A
VL: B1 VL with S10T, Q92N
notes: PR001364 variant: VH G55A; hIgG1; also called anti-ROR1 1015M3-D8(H: G55A) hIgG1
B23: PR002576 (antibody, human IgG1, kappa, V domains shown)
VH: B1 VH with Q1E, V5L, Q6E, Y32F, I50V, M51I, D54E
VL: B1 VL with S10T, Q92N, S93A
notes: PR001364 variant: VH D54E, VL S93A; hIgG1; also called anti-ROR1 1015M3-D8(H: D54E; L: S93A) hIgG1
B24: PR002575 (antibody, human IgG1, kappa, V domains shown)
VH: B1 VH with Q1E, V5L, Q6E, Y32F, I50V, M51I, D54E
VL: B1 VL with S10T
notes: PR001364 variant: VH D54E, VL N92Q; hIgG1; also called anti-ROR1 1015M3-D8(H: D54E; L: N92Q) hIgG1
B25: PR002584 (antibody, human IgG1, kappa, V domains shown)
VH: B1 VH with Q6E, S31N, M34I, D54E, D57N, K58T, Y80F
VL: B1 VL with S10T, Q92N, S93A
notes: PR001369 variant: VH D54E, VL S93A; hIgG1; also called anti-ROR1 1015M3-H10(H: D54E; L: S93A) hIgG1
B26: PR002566 (antibody, human IgG1, kappa, V domains shown)
VH: B1 VH with D54E
VL: B1 VL with Q92N, S93A
notes: PR001354 variant: VH D54E, VL S93A; hIgG1; also called anti-ROR1 1015M2-C9(H: D54E; L: S93A) hIgG1

target: T1, human ROR1 (hROR1) on cells (human, UniProt Q01973 30-937); experiment: FACS, Panc-1 cells; note: test concentration or dose not given here
T1 construct: whole, on cells; the cell line is named under assay; also called HEK293T-hROR1; 293T-hROR1
T1 sequence (Q01973 30-937): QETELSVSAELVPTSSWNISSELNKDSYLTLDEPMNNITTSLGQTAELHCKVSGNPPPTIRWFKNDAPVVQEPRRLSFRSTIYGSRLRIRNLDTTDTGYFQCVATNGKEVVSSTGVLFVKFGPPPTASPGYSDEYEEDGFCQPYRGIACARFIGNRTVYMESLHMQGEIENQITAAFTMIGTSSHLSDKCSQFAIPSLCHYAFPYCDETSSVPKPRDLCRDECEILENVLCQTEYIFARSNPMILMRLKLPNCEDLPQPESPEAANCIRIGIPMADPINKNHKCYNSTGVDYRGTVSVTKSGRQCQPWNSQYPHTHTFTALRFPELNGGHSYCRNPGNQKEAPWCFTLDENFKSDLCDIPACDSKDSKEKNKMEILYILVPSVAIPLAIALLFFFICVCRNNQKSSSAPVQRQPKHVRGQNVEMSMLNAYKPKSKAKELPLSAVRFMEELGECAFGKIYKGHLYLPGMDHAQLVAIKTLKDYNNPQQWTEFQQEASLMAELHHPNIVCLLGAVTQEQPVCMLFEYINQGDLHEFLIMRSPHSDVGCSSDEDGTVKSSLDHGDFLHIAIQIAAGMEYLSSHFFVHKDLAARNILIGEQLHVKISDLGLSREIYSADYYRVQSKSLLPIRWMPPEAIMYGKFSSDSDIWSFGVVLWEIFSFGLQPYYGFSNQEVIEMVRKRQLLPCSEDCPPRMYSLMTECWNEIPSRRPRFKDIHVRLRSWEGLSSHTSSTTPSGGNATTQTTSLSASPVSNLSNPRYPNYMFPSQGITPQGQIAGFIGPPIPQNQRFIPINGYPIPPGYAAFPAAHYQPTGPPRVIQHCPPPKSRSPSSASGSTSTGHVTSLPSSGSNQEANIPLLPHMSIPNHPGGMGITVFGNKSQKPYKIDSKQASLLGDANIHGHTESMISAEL

Row | Binder | MFI [MFI]
1 | B1 | 5600
2 | B2 | 2950
3 | B3 | 1990
4 | B4 | 7050
5 | B5 | 5490
6 | B6 | 4560
7 | B7 | 2610
8 | B8 | 3930
9 | B9 | 3180
10 | B10 | 3710
11 | B11 | 3760
12 | B12 | 6820
13 | B13 | 6590
14 | B14 | 5020
15 | B15 | 7030
16 | B16 | 3660
17 | B17 | 3950
18 | B18 | 6700
19 | B19 | 5870
20 | B20 | 3620
21 | B21 | 3720
22 | B22 | 6490
23 | B23 | 2470
24 | B24 | 3250
25 | B25 | 3180
26 | B26 | 4630

target: T1, human ROR1 (hROR1) on cells; experiment: FACS, HEK293T-hROR1 cells; note: test concentration or dose not given here

Row | Binder | MFI [MFI]
27 | B1 | 43900
28 | B2 | 41500
29 | B3 | 32300
30 | B4 | 43100
31 | B5 | 41900
32 | B6 | 49600
33 | B7 | 32700
34 | B8 | 43000
35 | B9 | 42300
36 | B10 | 37200
37 | B11 | 34500
38 | B12 | 46900
39 | B13 | 43200
40 | B14 | 43800
41 | B15 | 41900
42 | B16 | 43100
43 | B17 | 25300
44 | B18 | 45100
45 | B19 | 45300
46 | B20 | 46300
47 | B21 | 42500
48 | B22 | 44200
49 | B23 | 40200
50 | B24 | 33800
51 | B25 | 36600
52 | B26 | 43300

target: ROR1 (antigen of the KD determination and of the Octet dissociation measurement) (UniProt Q01973 30-403, limits assumed); experiment: Octet, antigen form not stated
Sequence (Q01973 30-403 limits assumed): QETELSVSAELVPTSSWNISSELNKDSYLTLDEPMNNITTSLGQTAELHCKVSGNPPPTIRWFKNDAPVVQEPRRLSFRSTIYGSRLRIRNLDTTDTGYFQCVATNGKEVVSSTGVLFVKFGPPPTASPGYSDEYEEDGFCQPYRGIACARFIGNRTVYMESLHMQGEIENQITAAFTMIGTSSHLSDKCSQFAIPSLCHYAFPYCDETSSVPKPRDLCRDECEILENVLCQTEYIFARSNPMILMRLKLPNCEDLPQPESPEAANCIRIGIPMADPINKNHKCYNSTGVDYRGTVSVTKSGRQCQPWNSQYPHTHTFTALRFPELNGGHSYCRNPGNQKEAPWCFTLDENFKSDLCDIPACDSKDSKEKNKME

Row | Binder | Response | koff [s⁻¹]
53 | B1 | 0.629 | 0.000162
54 | B2 | 0.756 | 0.000394
55 | B3 | 0.798 | 0.000193
56 | B4 | 0.783 | 0.000199
57 | B5 | 0.754 | 0.000266
58 | B6 | 0.638 | 0.000113
59 | B7 | 0.771 | 0.000389
60 | B8 | 0.606 | 0.000104
61 | B9 | 0.974 | 6.73e-05
62 | B10 | 0.723 | 8.84e-05
63 | B11 | 0.614 | 0.000207
64 | B12 | 0.595 | 0.000106
65 | B13 | 0.748 | 0.000108
66 | B14 | 0.757 | 0.000122
67 | B15 | 0.707 | 0.000215
68 | B16 | 0.472 | 0.00108
69 | B17 | 0.672 | 0.000223
70 | B18 | 0.414 | 0.000322
71 | B19 | 0.485 | 0.000172
72 | B20 | 0.702 | 0.00014
73 | B21 | 0.985 | 4.75e-05
74 | B22 | 0.244 | 0.000601
75 | B23 | 0.866 | 9.83e-05
76 | B24 | 0.828 | 0.000112
77 | B25 | 0.69 | 0.000301
78 | B26 | 0.663 | 0.000135
